Experimental findings from patent US20260049143A1 (KYMAB, published 2026) are described below.

Test [1] has as its target T1, mouse PD-L1 expressed on CHO-S cells (mouse, UniProt Q9EP73 19-290).
T1 construct: also called mPD-L1; CHO mouse PD-L1
The test can be described thus: flow cytometry on CHO cells expressing mouse PD-L1, anti-human IgG PE detection. The protocol:
(§1) CHO-S cells untransfected (referred to as WT) or transfected with mPD-L1 were diluted in FACS buffer (PBS+1% w/v BSA+0.1% w/v sodium azide) and were distributed to a 96-well V-bottom plate (Greiner) at a density of 5×10⁴ cells per well. […] Plates were centrifuged at 300×g for 3 minutes to supernatant aspirated. 50 μL antibody or mAb² solution were added to cells and incubated at 4° C. for 1 hour. Cells were washed with 150 μL of PBS and centrifuged at 300 g for 3 minutes. Supernatant was aspirated and 150 μL PBS added. This wash step was repeated. […] Cells were incubated for 1 hour at 4° C. in the dark. Cells were washed as previously described. To fix cells, 100 μL 4% v/v paraformaldehyde was added and cells incubated for 20 minutes at 4° C., cells were pelleted by centrifugation at 300×g and the plates resuspended in 100 μL FACS buffer.

The target in test [2] is T2, human PD-L1 expressed on cells (human, UniProt Q9NZQ7 19-290).
T2 construct: also called CHO human PD-L1; CHO-S cells transfected with human PD-L1
T2 sequence (Q9NZQ7 19-290 limits assumed): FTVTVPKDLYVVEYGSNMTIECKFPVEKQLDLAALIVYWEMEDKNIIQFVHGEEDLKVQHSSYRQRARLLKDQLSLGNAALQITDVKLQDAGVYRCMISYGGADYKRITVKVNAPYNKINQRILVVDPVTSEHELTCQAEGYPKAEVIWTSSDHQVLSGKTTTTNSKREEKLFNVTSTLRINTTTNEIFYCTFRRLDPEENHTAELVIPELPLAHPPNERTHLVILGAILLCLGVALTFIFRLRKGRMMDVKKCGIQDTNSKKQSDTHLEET
The test can be described thus: flow cytometry on CHO cells expressing human PD-L1, anti-human IgG PE detection. The protocol: as §1, with “the cDNA coding for human PD-L1” for “mPD-L1”

For test [3], the target named is T3, human ICOS expressed on cells (human, UniProt Q9Y6W8 21-199).
T3 sequence: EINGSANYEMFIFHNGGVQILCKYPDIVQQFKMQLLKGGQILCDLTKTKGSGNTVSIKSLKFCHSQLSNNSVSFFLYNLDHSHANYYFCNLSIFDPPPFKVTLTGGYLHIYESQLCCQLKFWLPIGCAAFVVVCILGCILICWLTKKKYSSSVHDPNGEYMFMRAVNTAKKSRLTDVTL
The test can be described thus: cell-based or functional assay.

In test [4] the target is FcγRIIIa on Jurkat NFAT luciferase v-variant effector cells (Promega) (human, UniProt P08637 17-254). The test can be described thus: cell-based or functional assay.
FcγRIIIa on Jurkat NFAT luciferase v-variant effector cells (Promega), sequence (P08637 other isoform, or with tags, fused parts or gaps mutant limits assumed): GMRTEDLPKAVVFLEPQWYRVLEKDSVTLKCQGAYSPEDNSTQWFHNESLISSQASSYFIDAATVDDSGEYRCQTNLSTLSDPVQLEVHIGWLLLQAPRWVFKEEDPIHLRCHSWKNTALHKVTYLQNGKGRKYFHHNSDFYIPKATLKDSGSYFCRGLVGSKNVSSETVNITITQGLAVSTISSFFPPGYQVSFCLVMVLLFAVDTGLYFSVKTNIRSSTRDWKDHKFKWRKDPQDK
For test [5], the target named is T3, human ICOS expressed on cells. The test can be described thus: cell-based or functional assay. The source holds these as a separate data set.
Test [6] concerns the target T4, mouse ICOS-mFc (Chimerigen) (mouse, UniProt Q9WVS0 21-141, limits assumed).
T4 construct: Bought fusion; also called mICOS; recombinant mouse ICOS protein; not shown: mouse Fc
T4 sequence: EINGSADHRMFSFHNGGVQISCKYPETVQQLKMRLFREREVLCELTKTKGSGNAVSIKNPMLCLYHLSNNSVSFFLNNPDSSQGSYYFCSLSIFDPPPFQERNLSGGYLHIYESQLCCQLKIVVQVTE
The test can be described thus: DELFIA ELISA, coated mouse ICOS-mFc, mean. The protocol: Recombinant ICOS proteins, human ICOS-mFc or mouse ICOS-mFc (Chimerigen) were diluted in 1×PBS and added to Black Hi-bind plates (Griener) at 1 μg/ml, 50 μl/well. Recombinant PD-L1 proteins, human PD-L1-Flag-His or mouse-His were diluted in 1×PBS and added to Black Hi-bind plates (Griener) at 4 μg/ml, 50 μl/well. The plates were left overnight at 4° C. The next day plates were washed 3× with 300 μl/well of 1×PBS+0.1% Tween and blocked with 200 μl/well of 1×PBS+1% BSA blocking buffer for 1 hr at RT on a plate shaker. Plates were washed 3× with 300 μl/well of 1×PBS+0.1% Tween.
However, human-PD-L1 mAb² antibodies were diluted in 1×PBS+0.1% BSA buffer and diluted 1 in 2 from a starting working concentration of 0.066 μM over an 11 point titration. Titrated antibodies were added to the plates, 50 μl/well and left to incubate for 1 hr at R.T on a plate shaker. Plates were washed 3× with 300 μl/well of 1×PBS+0.1% Tween.
DELFIA® Eu-labelled Anti-human IgG(Perkin-Elmer) was diluted 1:500 in DELFIA Assay buffer (Perkin-Elmer) and added to the assay plate (50 μl/well), left to incubate for 1 hr at RT on a plate shaker. […] After incubation, assay was read on Envision plate reader (Perkin Elmer), Time-resolved fluorescence (TRF) was measured at 615 nm.
(ELISA stands for enzyme-linked immunosorbent assay.)

T1 sequence (Q9EP73 19-290 limits assumed): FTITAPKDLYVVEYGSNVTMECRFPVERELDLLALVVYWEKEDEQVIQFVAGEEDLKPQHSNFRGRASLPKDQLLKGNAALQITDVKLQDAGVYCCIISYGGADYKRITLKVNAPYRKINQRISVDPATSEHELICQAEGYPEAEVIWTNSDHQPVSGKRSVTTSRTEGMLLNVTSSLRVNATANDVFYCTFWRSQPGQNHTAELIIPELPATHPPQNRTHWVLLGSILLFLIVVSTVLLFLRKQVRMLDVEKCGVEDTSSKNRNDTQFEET

B1: STIM003 (antibody, human IgG1, kappa)
heavy: not shown
light: EIVLTQSPGTLSLSPGERATLSCRASQSVSRSYLAWYQQKRGQAPRLLIYGASSRATGIPDRFSGDGSGTDFTLSISRLEPEDFAVYYCHQYDMSPFTFGPGTKVDIKRTVAAPSVFIFPPSDEQLKSGTASVVCLLNNFYPREAKVQWKVDNALQSGNSQESVTEQDSKDSTYSLSSTLTLSKADYEKHKVYACEVTHQGLSSPVTKSFNRGEC
notes: also called STIM003 IgG1
Consider B1, for which the binding result in test [1] is “no binding (tested: about 2e-8 M (log M -7.7))”. Also, in test [2], the binding result is reported as “no binding (tested: about 2e-7 M (log M -6.7))”. In test [3], the “EC50, ADCC (BATDA dye release), ICOS-transfected CCRF-CEM targets, NK cells, Donor 326” value (from here on “EC50, ADCC (BATDA dye release) … Donor 326”) came to 0.0212 nM; the “EC50, ADCC (BATDA dye release), ICOS-transfected CCRF-CEM targets, NK cells, Donor 334” value (from here on “EC50, ADCC (BATDA dye release) … Donor 334”) was determined as 0.0037 nM; the “EC50, ADCC (BATDA dye release), ICOS-transfected CCRF-CEM targets, NK cells, Donor 341” value (from here on “EC50, ADCC (BATDA dye release) … Donor 341”) amounted to 0.0067 nM; the “EC50, ADCC (BATDA dye release), ICOS-transfected CCRF-CEM targets, NK cells, Median” value (from here on “EC50, ADCC (BATDA dye release) … Median”) turned out to be 0.0105 nM. In test [4], the “EC50, NFAT luciferase reporter, CHO human ICOS target cells, N=1” value was 0.326 nM; the “EC50, NFAT luciferase reporter, CHO human ICOS target cells, N=2” value was found to be 0.477 nM; the “EC50, NFAT luciferase reporter, CHO human ICOS target cells, N=3” value worked out at 0.24 nM; the “EC50, NFAT luciferase reporter, CHO human ICOS target cells, mean” value amounted to 0.347 nM. Besides, in test [4], the “EC50, NFAT luciferase reporter, CHO mouse ICOS target cells, N=1” value amounted to 0.508 nM; the “EC50, NFAT luciferase reporter, CHO mouse ICOS target cells, N=2” value is 0.754 nM; the “EC50, NFAT luciferase reporter, CHO mouse ICOS target cells, N=3” value amounted to 0.703 nM; the “EC50, NFAT luciferase reporter, CHO mouse ICOS target cells, mean” value turned out to be 0.655 nM. In addition, in test [5], the “EC50 of IFN-γ release, plate-bound antibody, human T cells with CD3/CD28 beads, Median” value is 5.55 nM; the “EC50 of IFN-γ release, plate-bound antibody, human T cells with CD3/CD28 beads, donor 276” value is 7.1 nM; the “EC50 of IFN-γ release, plate-bound antibody, human T cells with CD3/CD28 beads, donor 278” value is 3.8 nM; the “EC50 of IFN-γ release, plate-bound antibody, human T cells with CD3/CD28 beads, donor 289” value was roughly 4 nM. Further, in test [5], the “EC50 of IFN-γ release, plate-bound antibody, human T cells with CD3/CD28 beads, donor 295” value was roughly 11.6 nM.

B2: STIM003_289 (bispecific antibody, V domains shown, not shown: a dimerising Fc or GST)
VH: EVQLVESGGGVVRPGGSLRLSCVASGVTFDDYGMSWVRQAPGKGLEWVSGINWNGGDTDYSDSVKGRFTISRDNAKNSLYLQMNSLRAEDTALYYCARDFYGSGSYYHVPFDYWGQGILVTVSS
VL: EIVLTQSPGTLSLSPGERATLSCRASQSVSRSYLAWYQQKRGQAPRLLIYGASSRATGIPDRFSGDGSGTDFTLSISRLEPEDFAVYYCHQYDMSPFTFGPGTKVDIK
With B2, in test [3], the “EC50, ADCC (BATDA dye release) … Donor 326” value is 0.0111 nM; the “EC50, ADCC (BATDA dye release) … Donor 334” value was found to be 0.0183 nM; the “EC50, ADCC (BATDA dye release) … Donor 341” value was 0.0066 nM; the “EC50, ADCC (BATDA dye release) … Median” value worked out at 0.012 nM. Also, in test [5], the “EC50 of IFN-γ release, plate-bound antibody, human T cells with CD3/CD28 beads, Median” value worked out at 8.1 nM; the “EC50 of IFN-γ release, plate-bound antibody, human T cells with CD3/CD28 beads, donor 276” value was roughly 6 nM; the “EC50 of IFN-γ release, plate-bound antibody, human T cells with CD3/CD28 beads, donor 278” value was roughly 3.8 nM; the “EC50 of IFN-γ release, plate-bound antibody, human T cells with CD3/CD28 beads, donor 289” value was determined as 10.2 nM. Moreover, in test [5], the “EC50 of IFN-γ release, plate-bound antibody, human T cells with CD3/CD28 beads, donor 295” value was 12.7 nM.

B3: STIM001 (antibody, human IgG1, kappa)
heavy: not shown
light: DIVMTQSPLSLPVTPGEPASISCRSSQSLLHSNEYNYLDWYLQKPGQSPQLLIFLGSNRASGVPDRFSGSGSGTDFTLKITRVEAEDVGIYYCMQSLQTPLTFGGGTKVEIKRTVAAPSVFIFPPSDEQLKSGTASVVCLLNNFYPREAKVQWKVDNALQSGNSQESVTEQDSKDSTYSLSSTLTLSKADYEKHKVYACEVTHQGLSSPVTKSFNRGEC
notes: also called STIM001 IgG1; STIM0001
Broadly, the EC50 is the concentration at which the effect is half-maximal. Low readings indicate greater potency, high ones weaker potency. Regarding B3, in test [1], the binding result is reported as “no binding (tested: about 2e-8 M (log M -7.7))”. Besides, in test [6], the response was half-maximal at 10.6 nM (EC50). For the same molecule, the binding result in test [2] was “no binding (tested: about 2e-7 M (log M -6.7))”. In test [3], the “EC50, ADCC (BATDA dye release) … Donor 326” value came out at 0.0426 nM; the “EC50, ADCC (BATDA dye release) … Donor 334” value was 0.0205 nM; the “EC50, ADCC (BATDA dye release) … Donor 341” value is 0.0076 nM; the “EC50, ADCC (BATDA dye release) … Median” value was 0.0236 nM. For the same molecule, in test [4], the “EC50, NFAT luciferase reporter, CHO human ICOS target cells, N=1” value was found to be 0.456 nM; the “EC50, NFAT luciferase reporter, CHO human ICOS target cells, N=2” value came to 0.247 nM; the “EC50, NFAT luciferase reporter, CHO human ICOS target cells, N=3” value is 0.147 nM; the “EC50, NFAT luciferase reporter, CHO human ICOS target cells, mean” value is 0.283 nM. In addition, in test [4], the “EC50, NFAT luciferase reporter, CHO mouse ICOS target cells, N=1” value worked out at 0.479 nM; the “EC50, NFAT luciferase reporter, CHO mouse ICOS target cells, N=2” value amounted to 0.534 nM; the “EC50, NFAT luciferase reporter, CHO mouse ICOS target cells, N=3” value turned out to be 0.579 nM; the “EC50, NFAT luciferase reporter, CHO mouse ICOS target cells, mean” value is 0.53 nM. For the same molecule, in test [5], the “EC50 of IFN-γ release, plate-bound antibody, human T cells with CD3/CD28 beads, Median” value worked out at 10.7 nM; the “EC50 of IFN-γ release, plate-bound antibody, human T cells with CD3/CD28 beads, donor 276” value is roughly 9.9 nM; the “EC50 of IFN-γ release, plate-bound antibody, human T cells with CD3/CD28 beads, donor 278” value was roughly 10.2 nM; the “EC50 of IFN-γ release, plate-bound antibody, human T cells with CD3/CD28 beads, donor 289” value was roughly 11.2 nM. Besides, the “EC50 of IFN-γ release, plate-bound antibody, human T cells with CD3/CD28 beads, donor 295” value in test [5] is 14.5 nM.

B4: STIM001_289 (bispecific antibody, V domains shown, not shown: a dimerising Fc or GST)
VH: QVQVVQSGAEVKKPGASVKVSCKASGYTFSTFGITWVRQAPGQGLEWMGWISAYNGDTNYAQNLQGRVIMTTDTSTSTAYMELRSLRSDDTAVYYCARSSGHYYYYGMDVWGQGTTVTVSS
VL: DIVMTQSPLSLPVTPGEPASISCRSSQSLLHSNEYNYLDWYLQKPGQSPQLLIFLGSNRASGVPDRFSGSGSGTDFTLKITRVEAEDVGIYYCMQSLQTPLTFGGGTKVEIK
On to B4, for which, in test [3], the “EC50, ADCC (BATDA dye release) … Donor 326” value came out at 0.0309 nM; the “EC50, ADCC (BATDA dye release) … Donor 334” value stood at 0.0041 nM; the “EC50, ADCC (BATDA dye release) … Donor 341” value was roughly 0.0103 nM; the “EC50, ADCC (BATDA dye release) … Median” value was found to be 0.0175 nM. In addition, in test [5], the “EC50 of IFN-γ release, plate-bound antibody, human T cells with CD3/CD28 beads, Median” value was 9.45 nM; the “EC50 of IFN-γ release, plate-bound antibody, human T cells with CD3/CD28 beads, donor 276” value is roughly 10 nM; the “EC50 of IFN-γ release, plate-bound antibody, human T cells with CD3/CD28 beads, donor 278” value stood at 8.9 nM; the “EC50 of IFN-γ release, plate-bound antibody, human T cells with CD3/CD28 beads, donor 289” value came to 7.1 nM. The “EC50 of IFN-γ release, plate-bound antibody, human T cells with CD3/CD28 beads, donor 295” value in test [5] worked out at 11.9 nM.
